Laboratory results reported in the Human Domainome abundance scans (Beltran et al. 2025).

B1: Formin-binding protein 4, residues 200 to 261; numbered along this chain, Q8N3X1 (parent)
chain: SGWQYDTQCSLAGVGIEMGDWQEVWDENTGCYYYWNTQTNEVTWELPQYLATQVQGLQHYQP

Variants of: B1
Test: abundance fitness (aPCA) (normalised: wild type 0, dead -1); higher = more abundant; growth selection in yeast, the domain comes from the species named
Conditions: Homo sapiens

Abundance fitness, by site and new letter:
S1: G 0.116; H -0.921; I -0.222; K 0.293; L -0.501; M 0.503; N -0.093; P -0.709; Q -0.673; R -0.236; T 0.046; V -0.052; W -0.075; Y -0.631
G2: C -0.276; D 0.196; F 0.071; H 0.607; I 0.273; L -0.022; M 0.19; N 0.405; Q 0.052; R -0.097; S 0.222; T 0.328; W -0.25; Y 0.422
W3: A 0.002; C -0.097; D -0.019; E -0.376; F 0.156; G -0.275; H -0.296; I -0.217; K 0.138; L -0.003; M 0.046; P -0.158; Q 0.157; R -0.202; S 0.127; T 0.168; V 0.054; Y 0.012
Q4: A -0.447; C -0.051; D 0.182; E -0.037; F 0.146; G -0.207; H 0.126; I 0.232; K 0.358; L -0.385; M 0.165; N 0.318; P -0.635; R 0.106; S -0.023; T 0.288; V 0.147; W -0.241; Y -0.176
Y5: A -0.416; C -0.592; D -0.525; E -0.218; F -0.115; G -0.36; H -0.052; I -0.436; L -0.425; M 0.06; P -0.506; Q -0.357; R -0.181; S -0.323; T -0.271; V -0.534; W -0.207
D6: A -0.354; C -0.342; E -0.135; F -0.492; G -0.17; H -0.282; I -0.228; K 0.009; P -0.706; Q -0.785; R -0.14; S -0.35; T -0.139; V -0.829; W -0.555; Y -0.644
T7: A 0.017; C 0.051; D -0.314; E -0.392; F -0.461; G -0.06; H -0.318; I -0.453; K -0.036; L -0.452; M -0.37; N 0.124; P -0.309; Q -0.012; R -0.061; S 0.002; V -0.262; W -0.493; Y -0.181
Q8: A 0.29; C -0.188; D -0.515; E 0.123; F -0.233; G 0.105; H 0.041; I -0.445; K 0.239; L -0.369; M -0.097; N -0.02; P -0.568; R 0.046; S 0.164; T 0.187; V -0.191; W -0.421; Y -0.267
C9: A 0.076; D 0.052; G -0.081; H -0.139; I -0.171; K 0.254; L 0.049; P -0.365; Q 0.017; S 0.065; T 0.22; V 0.205; W -0.377; Y -0.105
S10: A -0.266; C -0.332; D -0.472; F -0.776; G -0.148; H -0.644; I -0.476; K -0.457; L -0.651; M -0.521; N -0.533; P -0.216; Q -0.498; R -0.328; T -0.112; V -0.701; W -1.03
